This is an account of results in patent US20060134746, “Adding photoregulated amino acids to the genetic code” (The Scripps Research Institute, published 2006).

The test system of series [1] is CAP (catabolite activator protein) wild-type (Escherichia coli). As to the kind of experiment: EMSA. Particulars: 20 uM cAMP, 10 mM Tris pH 7.5, 50 mM NaCl, 1 mM MgCl2, 25 C; approximate value.
In series [2] the test system is CAP70TAG azobenzyl-Phe mutant, trans (before irradiation) I70(azobenzyl-Phe) (Escherichia coli). Kind of series: EMSA. Conditions: 20 uM cAMP, 25 C; approximate value; 4-fold lower than wt; same value recovered after switching back with light >=420 nm. (In general: Mobility shift assays separate free from complexed probe on a gel.)
The subject of series [3] is CAP70TAG azobenzyl-Phe mutant, irradiated at 334 nm (about 50% cis) I70(azobenzyl-Phe) (Escherichia coli). As to the kind of experiment: EMSA. Particulars: 20 uM cAMP, 25 C; after 334 nm irradiation 40 min at 0 C, photostationary state about 50% cis.
The target of series [4] is E. coli leucyl-tRNA synthetase (ecLRS) wild-type (Escherichia coli, UniProt P07813 SEQ:1-860). Kind of series: cell_activity; amber suppression of GAL4 (2 TAG) in S. cerevisiae, beta-galactosidase; printed as 104-fold increase (10^4) over either component alone. The source says: The orthogonality of the E. coli leucyl suppressor tRNACUA (Leu5CUA) (FIG. 1A), which has U35 and A37 in the anticodon loop, and the corresponding ecLRS was examined in vivo in a selection strain of S. cerevisiae [MaV203:pGADGAL4(2 TAG)]. See Chin, et al., Science, 2003, 301:964-7. This strain harbors the transcriptional activator GAL4 with amber codons at two permissive sites (Thr44 and Arg110). Efficient suppression at both sites leads to expression of three reporter genes: lacZ, his3, and ura3. In the presence of either Leu5CUA or ecLRS alone, no significant β-galactosidase activity was detected above the residual activity in lysates from […] cells. […] See ibid.
E. coli leucyl-tRNA synthetase (ecLRS) wild-type, sequence (P07813 whole entry, the tested form may be a part): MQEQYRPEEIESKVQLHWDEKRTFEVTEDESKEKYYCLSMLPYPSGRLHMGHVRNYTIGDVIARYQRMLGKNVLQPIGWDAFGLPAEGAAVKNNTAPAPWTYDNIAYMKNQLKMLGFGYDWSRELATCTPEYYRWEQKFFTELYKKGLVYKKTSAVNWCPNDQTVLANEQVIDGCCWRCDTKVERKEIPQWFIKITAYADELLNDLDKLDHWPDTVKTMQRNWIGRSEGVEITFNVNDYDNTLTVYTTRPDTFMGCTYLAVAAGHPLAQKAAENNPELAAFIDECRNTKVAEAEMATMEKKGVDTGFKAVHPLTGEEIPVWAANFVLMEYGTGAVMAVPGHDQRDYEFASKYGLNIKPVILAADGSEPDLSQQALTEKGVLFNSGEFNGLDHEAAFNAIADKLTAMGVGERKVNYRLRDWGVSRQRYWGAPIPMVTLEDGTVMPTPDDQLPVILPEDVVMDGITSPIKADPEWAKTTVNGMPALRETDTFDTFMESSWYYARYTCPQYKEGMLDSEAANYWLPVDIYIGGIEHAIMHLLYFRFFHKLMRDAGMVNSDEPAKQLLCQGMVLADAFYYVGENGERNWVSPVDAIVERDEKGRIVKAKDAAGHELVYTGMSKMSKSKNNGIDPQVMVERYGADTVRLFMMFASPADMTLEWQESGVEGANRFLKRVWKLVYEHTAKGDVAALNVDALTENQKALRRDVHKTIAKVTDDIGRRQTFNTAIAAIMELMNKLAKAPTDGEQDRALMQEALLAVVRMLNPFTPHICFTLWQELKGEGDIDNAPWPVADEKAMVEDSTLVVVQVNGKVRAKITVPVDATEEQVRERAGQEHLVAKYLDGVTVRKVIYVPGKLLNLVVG

Turning to “118 bp lac promoter fragment with primary CAP site”, the figures for the Ka in series [1], in series [2] and in series [3] were 1.6e+07 M⁻¹, 4e+06 M⁻¹ and 1e+06 M⁻¹, respectively.

B1: Leu5CUA amber suppressor tRNA (ssRNA)
RNA: GCCCGGAUGGUGGAAUCGGUAGACACAAGGGAUUCUAAAUCCCUCGGCGUUCGCGCUGUGCGGGUUCAAGUCCCGCUCCGGGUACCA
B1 returned an activity in series [4] greater than 10000 fold.
